This data set concerns the molecule itself. In words: native gel or EMSA + other: dynamic light scattering + other: negative-stain TEM. Background: In EMSA bound probe runs differently from free probe, usually more slowly.

B1: Encapsulin from Thermotoga maritima (natural protein)
chain: MEFLKRSFAPLTEKQWQEIDNRAREIFKTQLYGRKFVDVEGPYGWEYAAHPLGEVEVLSDENEVVKWGLRKSLPLIELRATFTLDLWELDNLERGKPNVDLSSLEETVRKVAEFEDEVIFRGCEKSGVKGLLSFEERKIECGSTPKDLLEAIVRALSIFSKDGIEGPYTLVINTDRWINFLKEEAGHYPLEKRVEECLRGGKIITTPRIEDALVVSERGGDFKLILGQDLSIGYEDREKDAVRLFITETFTFQVVNPEALILLKF
Turning to B1, the binding result is recorded as “binds”.
